By Kd is commonly meant the equilibrium constant for the complex coming apart.

The experiment has as its target T1, transmembrane serine protease 2 (TMPRSS2) ectodomain (human, UniProt O15393 106-492).
T1 construct: Transmembrane serine protease 2 (TMPRSS2), ectodomain; also called TMRPSS2; source: purified
Kind of experiment: BLI; bio-layer interferometry titrations of RBD-TMPRSS2; which partner was immobilised and the conditions are not told. Conditions: both partners purified.

T1 sequence (O15393 106-492): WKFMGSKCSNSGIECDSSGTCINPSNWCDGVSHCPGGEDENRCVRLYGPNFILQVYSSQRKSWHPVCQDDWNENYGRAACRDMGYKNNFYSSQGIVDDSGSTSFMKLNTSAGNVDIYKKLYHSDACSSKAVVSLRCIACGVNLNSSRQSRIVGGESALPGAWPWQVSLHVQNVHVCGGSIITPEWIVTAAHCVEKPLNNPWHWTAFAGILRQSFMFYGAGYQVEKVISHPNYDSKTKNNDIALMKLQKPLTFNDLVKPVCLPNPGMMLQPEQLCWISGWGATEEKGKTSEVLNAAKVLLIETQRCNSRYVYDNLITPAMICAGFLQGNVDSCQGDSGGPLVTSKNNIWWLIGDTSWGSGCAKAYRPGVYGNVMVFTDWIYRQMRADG

B1: HKU1-A (1A) spike S1 receptor-binding domain (domain or fragment)
chain: SGFTVKPVATVHRRIPDLPDCDIDKWLNNFNVPSPLNWERKIFSNCNFNLSTLLRLVHTDSFSCNNFDESKIYGSCFKSIVLDKFAIPNSRRSDLQLGSSGFLQSSNYKIDTTSSSCQLYYSLPAINVTINNYNPSSWNRRYGFNNFNLSSHSVVYSRYCFSVNNTFCPCAKPSFASSCKSHKPPSASCPIGTNYRSCESTTVLDHTDWCRCSCLPDPITAYDPRSCSQKKSLVGVGEHCAGFGVDEEKCGVLDGSYNVSCLCSTDAFLGWSYDTCVSNNRCNIFSNFILNGINSGTTCSNDLLQPNTEVFTDVCVDYDLYGITGQGIFKEVSAVYYNSWQNLLYDSNGNIIGFKDFVTNKTYNIFPCYAG
modifications: N-glycosylated; disulfides C504-C518 and C520-C533. Construct limits are only in the schematic (Fig. 1a), so they are taken from the paper's own deposited entity 8YOY (start and end shown match …)
B1 yielded a Kd of 323 nM.

B2: HKU1-B (1B) spike S1 receptor-binding domain (domain or fragment)
chain: NLPDCDIDNWLNNVSVPSPLNWERRIFSNCNFNLSTLLRLVHVDSFSCNNLDKSKIFGSCFNSITVDKFAIPNRRRDDLQLGSSGFLQSSNYKIDISSSSCQLYYSLPLVNVTINNFNPSSWNRRYGFGSFNLSSYDVVYSDHCFSVNSDFCPCADPSVVNSCAKSKPPSAICPAGTKYRHCDLDTTLYVKNWCRCSCLPDPISTYSPNTCPQKKVVVGIGEHCPGLGINEEKCGTQLNHSSCFCSPDAFLGWSFDSCISNNRCNIFSNFIFNGINSGTTCSNDL
modifications: N-glycosylated; disulfides C504-C518 and C520-C533. Construct limits are only in the schematic (Fig. 1a), so they are taken from the paper's own deposited entity 8YQQ; the assayed construct may …
Turning to B2, the Kd was found to be 170 nM.

Values taken from article PMC11306395, “Structural basis for the interaction between human coronavirus HKU1 spike receptor binding domain and its receptor TMPRSS2” (Cell Discovery, 2024).
